Tested on: Escherichia coli TOP10
Assay: shrunken log2 fold change of peptide-encoding DNA abundance (4.5 h post-induction vs induction); higher = less antimicrobial activity (less host growth inhibition)
Conditions: time post-induction: 4.5 h; library: site-saturation at positions 5, 18, 19, 20
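Also: peptides expressed intracellularly from a pBAD plasmid library in pooled LB shake-flask culture, induced with 0.3% L-arabinose, DNA abundance read by NGS, three biological replicates, DESeq2 with apeglm shrinkage.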

RRIRVRPPRLPRPRPRPHPFPRP and RRIRVRPPRLPRPRPRPHPHPRP are within 0.2 log units of each other in “shrunken log2 fold change” value: -0.0878 for the first, -0.161 for the second.

RRIRVRPPRLPRPRPRPHPIPRP and RRIRVRPPRLPRPRPRPHPQPRP are within 0.2 log units of each other in “shrunken log2 fold change” value: -0.0473 for the first, -0.0987 for the second.

First: RRIRVRPPRLPRPRPRPHQNPRP
Second: RRIRVRPPRLPRPRPRPHRGPRP
The “shrunken log2 fold change” value of the first is lower: -0.296 for the first, -0.0736 for the second.

Going from RRIRVRPPRLPRPRPRPHRTPRP to RRIRVRPPRLPRPRPRPHSDPRP, the “shrunken log2 fold change” value rises from -0.16 to 0.0538.

First: RRIRVRPPRLPRPRPRPHSNPRP
Second: RRIRVRPPRLPRPRPRPHSYPRP
The “shrunken log2 fold change” value of the first is lower: -0.505 for the first, -0.262 for the second.

RRIRVRPPRLPRPRPRPHWFPRP and RRIRVRPPRLPRPRPRPHWKPRP are within 0.2 log units of each other in “shrunken log2 fold change” value: -0.11 for the first, -0.14 for the second.

Going from RRIRVRPPRLPRPRPRPHWPPRP to RRIRVRPPRLPRPRPRPHYDPRP, the “shrunken log2 fold change” value falls from -0.122 to -0.379.

Compared with RRIRVRPPRLPRPRPRPHYIPRP, RRIRVRPPRLPRPRPRPHYVPRP is higher in “shrunken log2 fold change” value: -0.589 for the first, 0.0323 for the second.

Compared with RRIRVRPPRLPRPRPRPHYWPRP, RRIRVRPPRLPRPRPRPICVPRP is higher in “shrunken log2 fold change” value: -0.336 for the first, -0.0314 for the second.

RRIRVRPPRLPRPRPRPIESPRP and RRIRVRPPRLPRPRPRPIETPRP are within 0.2 log units of each other in “shrunken log2 fold change” value: -0.0725 for the first, 0.0184 for the second.

Compared with RRIRVRPPRLPRPRPRPIFAPRP, RRIRVRPPRLPRPRPRPIHNPRP is lower in “shrunken log2 fold change” value: 0.231 for the first, -0.554 for the second.

RRIRVRPPRLPRPRPRPIHYPRP and RRIRVRPPRLPRPRPRPIIAPRP are within 0.2 log units of each other in “shrunken log2 fold change” value: -0.137 for the first, -0.195 for the second.

RRIRVRPPRLPRPRPRPIMSPRP and RRIRVRPPRLPRPRPRPINCPRP are within 0.2 log units of each other in “shrunken log2 fold change” value: -0.0851 for the first, -0.12 for the second.

First: RRIRVRPPRLPRPRPRPINMPRP
Second: RRIRVRPPRLPRPRPRPINSPRP
The “shrunken log2 fold change” value of the first is lower: -0.602 for the first, -0.022 for the second.

Compared with RRIRVRPPRLPRPRPRPINYPRP, RRIRVRPPRLPRPRPRPIPCPRP is higher in “shrunken log2 fold change” value: -0.348 for the first, -0.0881 for the second.

RRIRVRPPRLPRPRPRPIPLPRP and RRIRVRPPRLPRPRPRPIPRPRP are within 0.2 log units of each other in “shrunken log2 fold change” value: -0.107 for the first, 0.0796 for the second.

First: RRIRVRPPRLPRPRPRPIRLPRP
Second: RRIRVRPPRLPRPRPRPIRTPRP
The “shrunken log2 fold change” value of the first is lower: -0.419 for the first, 0.782 for the second.

Compared with RRIRVRPPRLPRPRPRPIRVPRP, RRIRVRPPRLPRPRPRPISFPRP is higher in “shrunken log2 fold change” value: -0.473 for the first, 0.0233 for the second.

RRIRVRPPRLPRPRPRPISHPRP and RRIRVRPPRLPRPRPRPISKPRP are within 0.2 log units of each other in “shrunken log2 fold change” value: -0.326 for the first, -0.184 for the second.

First: RRIRVRPPRLPRPRPRPISNPRP
Second: RRIRVRPPRLPRPRPRPITAPRP
The “shrunken log2 fold change” value of the first is lower: -0.512 for the first, -0.272 for the second.

Compared with RRIRVRPPRLPRPRPRPITPPRP, RRIRVRPPRLPRPRPRPIVSPRP is lower in “shrunken log2 fold change” value: 0.12 for the first, -0.187 for the second.

RRIRVRPPRLPRPRPRPIYAPRP and RRIRVRPPRLPRPRPRPIYCPRP are within 0.2 log units of each other in “shrunken log2 fold change” value: -0.0133 for the first, -0.113 for the second.

RRIRVRPPRLPRPRPRPIYHPRP and RRIRVRPPRLPRPRPRPIYTPRP are within 0.2 log units of each other in “shrunken log2 fold change” value: -0.461 for the first, -0.279 for the second.

First: RRIRVRPPRLPRPRPRPKAHPRP
Second: RRIRVRPPRLPRPRPRPKCHPRP
The “shrunken log2 fold change” value of the first is higher: -0.00647 for the first, -0.242 for the second.

RRIRVRPPRLPRPRPRPKCPPRP and RRIRVRPPRLPRPRPRPKDCPRP are within 0.2 log units of each other in “shrunken log2 fold change” value: 0.0181 for the first, -0.107 for the second.

First: RRIRVRPPRLPRPRPRPKDIPRP
Second: RRIRVRPPRLPRPRPRPKDWPRP
The “shrunken log2 fold change” value of the first is lower: -0.642 for the first, 0.0589 for the second.

RRIRVRPPRLPRPRPRPKESPRP and RRIRVRPPRLPRPRPRPKFCPRP are within 0.2 log units of each other in “shrunken log2 fold change” value: -0.0206 for the first, -0.137 for the second.

RRIRVRPPRLPRPRPRPKFFPRP and RRIRVRPPRLPRPRPRPKGGPRP are within 0.2 log units of each other in “shrunken log2 fold change” value: -0.0182 for the first, 0.0495 for the second.

RRIRVRPPRLPRPRPRPKGTPRP and RRIRVRPPRLPRPRPRPKIGPRP are within 0.2 log units of each other in “shrunken log2 fold change” value: -0.171 for the first, -0.0842 for the second.

RRIRVRPPRLPRPRPRPKIHPRP and RRIRVRPPRLPRPRPRPKKDPRP are within 0.2 log units of each other in “shrunken log2 fold change” value: -0.205 for the first, -0.262 for the second.

First: RRIRVRPPRLPRPRPRPKQHPRP
Second: RRIRVRPPRLPRPRPRPKQQPRP
The “shrunken log2 fold change” value of the first is lower: -0.301 for the first, 0.0386 for the second.

First: RRIRVRPPRLPRPRPRPKSCPRP
Second: RRIRVRPPRLPRPRPRPKSQPRP
The “shrunken log2 fold change” value of the first is lower: -0.113 for the first, 0.309 for the second.

RRIRVRPPRLPRPRPRPKSWPRP and RRIRVRPPRLPRPRPRPKVKPRP are within 0.2 log units of each other in “shrunken log2 fold change” value: 0.224 for the first, 0.0531 for the second.

RRIRVRPPRLPRPRPRPKVWPRP and RRIRVRPPRLPRPRPRPKWAPRP are within 0.2 log units of each other in “shrunken log2 fold change” value: 0.409 for the first, 0.269 for the second.

Going from RRIRVRPPRLPRPRPRPKWTPRP to RRIRVRPPRLPRPRPRPKYFPRP, the “shrunken log2 fold change” value falls from 0.0514 to -0.239.

RRIRVRPPRLPRPRPRPLAPPRP and RRIRVRPPRLPRPRPRPLAQPRP are within 0.2 log units of each other in “shrunken log2 fold change” value: 0.169 for the first, 0.187 for the second.

First: RRIRVRPPRLPRPRPRPLCIPRP
Second: RRIRVRPPRLPRPRPRPLCMPRP
The “shrunken log2 fold change” value of the first is lower: -0.499 for the first, -0.123 for the second.

First: RRIRVRPPRLPRPRPRPLCVPRP
Second: RRIRVRPPRLPRPRPRPLDDPRP
The “shrunken log2 fold change” value of the first is higher: 1.22 for the first, 0.00726 for the second.

RRIRVRPPRLPRPRPRPLEKPRP and RRIRVRPPRLPRPRPRPLENPRP are within 0.2 log units of each other in “shrunken log2 fold change” value: 0.158 for the first, 0.124 for the second.

Compared with RRIRVRPPRLPRPRPRPLERPRP, RRIRVRPPRLPRPRPRPLFSPRP is lower in “shrunken log2 fold change” value: -0.0607 for the first, -0.261 for the second.

First: RRIRVRPPRLPRPRPRPLFTPRP
Second: RRIRVRPPRLPRPRPRPLGKPRP
The “shrunken log2 fold change” value of the first is lower: -0.448 for the first, 0.0149 for the second.

RRIRVRPPRLPRPRPRPLGVPRP and RRIRVRPPRLPRPRPRPLKNPRP are within 0.2 log units of each other in “shrunken log2 fold change” value: -0.116 for the first, -0.0569 for the second.

RRIRVRPPRLPRPRPRPLMEPRP and RRIRVRPPRLPRPRPRPLNRPRP are within 0.2 log units of each other in “shrunken log2 fold change” value: -0.21 for the first, -0.328 for the second.

RRIRVRPPRLPRPRPRPLQFPRP and RRIRVRPPRLPRPRPRPLRYPRP are within 0.2 log units of each other in “shrunken log2 fold change” value: -0.149 for the first, -0.142 for the second.

RRIRVRPPRLPRPRPRPLVKPRP and RRIRVRPPRLPRPRPRPLWDPRP are within 0.2 log units of each other in “shrunken log2 fold change” value: -0.0152 for the first, 0.00404 for the second.

RRIRVRPPRLPRPRPRPLYKPRP and RRIRVRPPRLPRPRPRPLYYPRP are within 0.2 log units of each other in “shrunken log2 fold change” value: -0.584 for the first, -0.453 for the second.

Compared with RRIRVRPPRLPRPRPRPMALPRP, RRIRVRPPRLPRPRPRPMAPPRP is higher in “shrunken log2 fold change” value: -0.169 for the first, 0.0351 for the second.

First: RRIRVRPPRLPRPRPRPMDMPRP
Second: RRIRVRPPRLPRPRPRPMEEPRP
The “shrunken log2 fold change” value of the first is lower: -0.946 for the first, 0.215 for the second.

First: RRIRVRPPRLPRPRPRPMFDPRP
Second: RRIRVRPPRLPRPRPRPMFYPRP
The “shrunken log2 fold change” value of the first is higher: -0.338 for the first, -0.725 for the second.

RRIRVRPPRLPRPRPRPMGGPRP and RRIRVRPPRLPRPRPRPMHCPRP are within 0.2 log units of each other in “shrunken log2 fold change” value: 0.062 for the first, -0.00923 for the second.

RRIRVRPPRLPRPRPRPMHGPRP and RRIRVRPPRLPRPRPRPMHPPRP are within 0.2 log units of each other in “shrunken log2 fold change” value: 0.00623 for the first, 0.0843 for the second.

RRIRVRPPRLPRPRPRPMLGPRP and RRIRVRPPRLPRPRPRPMNDPRP are within 0.2 log units of each other in “shrunken log2 fold change” value: -0.0049 for the first, -0.187 for the second.

RRIRVRPPRLPRPRPRPMNLPRP and RRIRVRPPRLPRPRPRPMQIPRP are within 0.2 log units of each other in “shrunken log2 fold change” value: -0.0749 for the first, -0.0185 for the second.

RRIRVRPPRLPRPRPRPMQYPRP and RRIRVRPPRLPRPRPRPNCYPRP are within 0.2 log units of each other in “shrunken log2 fold change” value: -0.324 for the first, -0.411 for the second.

In the case of RRIRVRPPRLPRPRPRPNDMPRP, the “shrunken log2 fold change” value was -0.337.

From the supplement of paper PMC9112550, “Optimization of the antimicrobial peptide Bac7 by deep mutational scanning” (BMC Biology, 2022)
